The text below walks through data of patent publication US20120021995A1 (published 2012).

The labels stand for the following.
T1: DR4 (TRAIL-R1) on cancer cells (human, UniProt O00220 24-468)
T1 sequence: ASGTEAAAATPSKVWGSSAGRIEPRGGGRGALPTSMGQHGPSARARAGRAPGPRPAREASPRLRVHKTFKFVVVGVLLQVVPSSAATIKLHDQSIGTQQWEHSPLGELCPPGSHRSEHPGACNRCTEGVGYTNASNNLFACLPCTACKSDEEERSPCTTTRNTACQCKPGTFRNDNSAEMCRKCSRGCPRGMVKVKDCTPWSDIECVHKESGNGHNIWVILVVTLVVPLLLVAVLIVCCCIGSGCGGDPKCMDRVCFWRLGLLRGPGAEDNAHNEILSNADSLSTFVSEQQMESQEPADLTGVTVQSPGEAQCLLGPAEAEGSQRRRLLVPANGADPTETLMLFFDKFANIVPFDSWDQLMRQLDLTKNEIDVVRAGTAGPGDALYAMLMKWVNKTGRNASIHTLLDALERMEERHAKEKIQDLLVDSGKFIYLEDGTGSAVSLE

T2: recombinant human TRAIL R1 (DR4)/Fc chimera (human, UniProt O00220 24-239)
T2 construct: bought (R&D Systems); not shown: Fc of the bought chimera (R&D Systems)
T2 sequence: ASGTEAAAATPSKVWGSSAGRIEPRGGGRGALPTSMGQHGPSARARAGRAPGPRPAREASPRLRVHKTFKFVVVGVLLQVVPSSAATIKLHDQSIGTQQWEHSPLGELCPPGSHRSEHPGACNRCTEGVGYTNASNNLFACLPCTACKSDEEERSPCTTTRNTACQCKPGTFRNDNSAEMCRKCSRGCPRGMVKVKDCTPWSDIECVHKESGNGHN

B1: 71p88P1A1 (designed binder)
chain: EPPTQKPKKIVNAKKDVVNTKMFEELKSRLDTLAQEVALLKEQQALQTVCLKGTKVHMKCFLAFTQTKTFHEASEDCISRGGTLSTPQTGSENDALYEYLRQSVGNEAEIWLGLNGWMDGSGWVDMTGARIAYKNWETEITAQPDGGRLWRWENCAVLSGAANGKWFDKRCRDQLPYICQFGIV
B2: 71p88P1B9 (designed binder)
chain: EPPTQKPKKIVNAKKDVVNTKMFEELKSRLDTLAQEVALLKEQQALQTVCLKGTKVHMKCFLAFTQTKTFHEASEDCISRGGTLSTPQTGSENDALYEYLRQSVGNEAEIWLGLNGWLAGSGWVDMTGARIAYKNWETEITAQPDGGGGWPWENCAVLSGAANGKWFDKRCRDQLPYICQFGIV
B3: 71p88P1B4 (designed binder)
chain: EPPTQKPKKIVNAKKDVVNTKMFEELKSRLDTLAQEVALLKEQQALQTVCLKGTKVHMKCFLAFTQTKTFHEASEDCISRGGTLSTPQTGSENDALYEYLRQSVGNEAEIWLGLNGWLEGYGWVDMTGARIAYKNWETEITAQPDGGAERAWENCAVLSGAANGKWFDKRCRDQLPYICQFGIV
B4: 71p88P1B12 (designed binder)
chain: EPPTQKPKKIVNAKKDVVNTKMFEELKSRLDTLAQEVALLKEQQALQTVCLKGTKVHMKCFLAFTQTKTFHEASEDCISRGGTLSTPQTGSENDALYEYLRQSVGNEAEIWLGLNGWIEGAGWVDMTGARIAYKNWETEITAQPDGGWRSRWENCAVLSGAANGKWFDKRCRDQLPYICQFGIV
B5: 064-36.1E12 (designed binder)
chain: ALQTVCLKGTKVHMKCFLAFTQTKTFHEASEDCISRGGTLSTPQTGSENDALYEYLRQSVGNEAEIWLGLNGCTQGQGWVDMTGARIAYKNWETEITAQPDGGKKWKWENCAVLSGAANGKWFDKRCRDQLPYICQFGIV
notes: on phage
B6: 064-40.2D9 (designed binder)
chain: ALQTVCLKGTKVHMKCFLAFTQTKTFHEASEDCISRGGTLSTPQTGSENDALYEYLRQSVGNEAEIWLGLNWQLYYRYWVDMTGARIAYKNWETEITAQPDGGVGCMVENCAVLSGAANGKWFDKRCRDQLPYICQFGIV
notes: on phage
B7: 064-40.1E11 (designed binder)
chain: ALQTVCLKGTKVHMKCFLAFTQTKTFHEASEDCISRGGTLSTPQTGSENDALYEYLRQSVGNEAEIWLGLNWLSLFSPWVDMTGARIAYKNWETEITAQPDGGRGVRGENCAVLSGAANGKWFDKRCRDQLPYICQFGIV
notes: on phage
B8: 064-40.1G11 (designed binder)
chain: ALQTVCLKGTKVHMKCFLAFTQTKTFHEASEDCISRGGTLSTPQTGSENDALYEYLRQSVGNEAEIWLGLNVARWLLKWVDMTGARIAYKNWETEITAQPDGGMCKPCENCAVLSGAANGKWFDKRCRDQLPYICQFGIV
notes: on phage
B9: 064-40.2A10 (designed binder)
chain: ALQTVCLKGTKVHMKCFLAFTQTKTFHEASEDCISRGGTLSTPQTGSENDALYEYLRQSVGNEAEIWLGLNGVLQRGGWVDMTGARIAYKNWETEITAQPDGGPGGERENCAVLSGAANGKWFDKRCRDQLPYICQFGIV
notes: on phage
B10: 064-40.2C7 (designed binder)
chain: ALQTVCLKGTKVHMKCFLAFTQTKTFHEASEDCISRGGTLSTPQTGSENDALYEYLRQSVGNEAEIWLGLNSYRLHYGWVDMTGARIAYKNWETEITAQPDGGRRWLGENCAVLSGAANGKWFDKRCRDQLPYICQFGIV
notes: on phage
B11: 064-40.2E10 (designed binder)
chain: ALQTVCLKGTKVHMKCFLAFTQTKTFHEASEDCISRGGTLSTPQTGSENDALYEYLRQSVGNEAEIWLGLNGYLDGVGWVDMTGARIAYKNWETEITAQPDGGQGCRWENCAVLSGAANGKWFDKRCRDQLPYICQFGIV
notes: on phage
B12: 064-36.1G10 (designed binder)
chain: ALQTVCLKGTKVHMKCFLAFTQTKTFHEASEDCISRGGTLSTPQTGSENDALYEYLRQSVGNEAEIWLGLNGYLQGSGWVDMTGARIAYKNWETEITAQPDGGWKTRWENCAVLSGAANGKWFDKRCRDQLPYICQFGIV
notes: on phage
B13: 064-36.1G4 (designed binder)
chain: ALQTVCLKGTKVHMKCFLAFTQTKTFHEASEDCISRGGTLSTPQTGSENDALYEYLRQSVGNEAEIWLGLNRCLQGVGWVDMTGARIAYKNWETEITAQPDGGRGWPWENCAVLSGAANGKWFDKRCRDQLPYICQFGIV
notes: on phage
B14: 064-101.4H1 (designed binder)
chain: ALQTVCLKGTKVHMKCFLAFTQTKTFHEASEDCISRGGTLSTPQTGSENDALYEYLRQSVGNEAEIWLGLNPYTSWGLWVDMTGARIAYKNWETEITAQPDGGVGGRGENCAVLSGAANGKWFDKRCRDQLPYICQFGIV
notes: on phage
B15: 064-101.4B10 (designed binder)
chain: ALQTVCLKGTKVHMKCFLAFTQTKTFHEASEDCISRGGTLSTPQTGSENDALYEYLRQSVGNEAEIWLGLNQWVAFWSWVDMTGARIAYKNWETEITAQPDGGSAVSGENCAVLSGAANGKWFDKRCRDQLPYICQFGIV
notes: on phage
B16: 064-99.2H5 (designed binder)
chain: ALQTVCLKGTKVHMKCFLAFTQTKTFHEASEDCISRGGTLSTPQTGSENDALYEYLRQSVGNEAEIWLGLNGLLSDWWWVDMTGARIAYKNWETEITAQPDGGGNQSRENCAVLSGAANGKWFDKRCRDQLPYICQFGIV
notes: on phage
B17: 064-40.1G9 (designed binder)
chain: ALQTVCLKGTKVHMKCFLAFTQTKTFHEASEDCISRGGTLSTPQTGSENDALYEYLRQSVGNEAEIWLGLNGWLSGVGWVDMTGARIAYKNWETEITAQPDGGWAHAWENCAVLSGAANGKWFDKRCRDQLPYICQFGIV
notes: on phage
B18: 064-40.2G11 (designed binder)
chain: ALQTVCLKGTKVHMKCFLAFTQTKTFHEASEDCISRGGTLSTPQTGSENDALYEYLRQSVGNEAEIWLGLNGWLEGAGWVDMTGARIAYKNWETEITAQPDGGWQWRWENCAVLSGAANGKWFDKRCRDQLPYICQFGIV
notes: on phage
B19: 064-98.1G6 (designed binder)
chain: ALQTVCLKGTKVHMKCFLAFTQTKTFHEASEDCISRGGTLSTPQTGSENDALYEYLRQSVGNEAEIWLGLNGWLSGYGWVDMTGARIAYKNWETEITAQPDGGRVWSWENCAVLSGAANGKWFDKRCRDQLPYICQFGIV
notes: on phage

For one assay, the target named is T1, DR4 (TRAIL-R1) on cancer cells. The assay is described as follows: cell-based or functional assay.
For B1, the “Colo205 % killing (% of TRAIL activity)” value was -1%, the “H2122 % killing (% of TRAIL activity)” value is -2% and the “ST486 % killing (% of TRAIL activity)” value came to 57%.

B2: the “Colo205 % killing (% of TRAIL activity)” value amounted to 7%, the “H2122 % killing (% of TRAIL activity)” value worked out at 3% and the “ST486 % killing (% of TRAIL activity)” value is 34%.

Turning to B3, the “Colo205 % killing (% of TRAIL activity)” value was -25%, the “H2122 % killing (% of TRAIL activity)” value is -5% and the “ST486 % killing (% of TRAIL activity)” value is -15%.

With B4, the “Colo205 % killing (% of TRAIL activity)” value is -10%, the “H2122 % killing (% of TRAIL activity)” value was -1% and the “ST486 % killing (% of TRAIL activity)” value worked out at 26%.

In a further assay the target is T2, recombinant human TRAIL R1 (DR4)/Fc …. The assay is described as follows: phage ELISA on DR4/Fc. As for the experimental part: The remaining overnight culture was used to make a master stock plate by adding 100 μL of 50% glycerol to each well and storing at −80° C. The replica culture plate was grown at 37° C. with shaking at 250 rpm for approximately 2 hrs until the OD₆₀₀ was 0.5-0.7. The wells were then infected with K07 helper phage to 5×10⁹ pfu/mL mixed and incubated at 37° C. for 30 minutes without shaking, then incubated an addition 30 minutes at 37° C. with shaking at 250 rpm. The cultures were then spun down at 2500 rpm and 4° C. for 20 minutes. The supernatants were removed from the wells and the bacterial cell pellets were re-suspended in 500 μL of 2xYT containing 50 μg/mL carbenicillin and 50 μg/mL kanamycin. An air-permeable membrane was placed on the culture block and cells were grown overnight at room temperature with shaking at 250 rpm.
On day 3, cultures were spun down and supernatants containing the phage were blocked with 3% milk/PBS for 1 hr at room temperature. An initial Phage ELISA was performed using 75-100 ng of antigen bound per well. Non-specific binding was measured using 75-100 ng of human IgG1 Fc per well. DR4/Fc antigen (R&D Systems)-coated wells and IgG Fc coated wells were prepared fresh the night before by binding the above amount of antigen diluted in 100 μL of PBS per well. Antigen plates were incubated overnight at 4° C. then for 1 hour at 37° C., washed twice with PBS/0.05% Tween 20 and twice with PBS, and then blocked with 3% milk/PBS for 1 hr at 37° C. prior to the ELISA. Blocked phage were bound to blocked antigen-bound plates for 1 hr then washed twice with 0.05% Tween 20/PBS and then twice more with PBS. A HRP-conjugated anti-M13 secondary antibody diluted in 3% milk/PBS was then applied, with binding for 1 hr and washing as described above. The ELISA signal was developed using 90 μL TMB substrate mix and then stopped with 90 μL 0.2 M sulfuric acid, then ELISA plates were read at 450 nm. […] Secondary ELISA screens were performed similarly to the protocol detailed above.
(In an ELISA, binding on a coated surface is turned into a signal by an enzyme label.)
Consider B5, for which the binding result is recorded as “binds”.

In the case of B6, the binding result is “binds”.

Turning to B7, the binding result is “binds”.

Consider B8, for which the binding result was “binds”.

Consider B9, for which the binding result is given as “binds”.

In the case of B10, the binding result is reported as “binds”.

Turning to B11, the binding result is reported as “binds”.

For the molecule B12, the binding result is given as “binds”.

For the molecule B13, the binding result is “binds”.

On to B14, for which the binding result is “binds”.

In the case of B15, the binding result is “binds”.

In the case of B16, the binding result was “binds”.

Turning to B17, the binding result was “binds”.

Consider B18, for which the binding result was “binds”.

With B19, the binding result is “binds”.
